B1: SP3 (designed binder)
chain: SGSSEELARESAEAAWRLAQAGTRLMLAWIRGDLKEIAEALIELARAVQELARVAKEYGNDELAKTAALLAAHVAMLAILVLIRAIKEGDDEVRELAKTAIKLASTAAKIVLDALPTAEEVRQITLLAKLAEEAADKKNEDSALAVGIAAAAVLLALLALEAAQKAGIEEAEKGARLLLKLAMDAARKKNPEEALAVFNAALDVSIALKLLQSAKRAGSEETRKLAEEMLRQALERARK
notes: Designed homodimer subunit, after TEV cleavage
B2: JIe (designed binder)
chain: SGSSEELARESAEAAWRLAQAATRIMLAVIRGDLKEIAEALIELARAVQELARVAKEYGNDELAKTAAFLAAHVALLAIIVLIRAIKEGDDEVRELAKTAIKLASTAAKIVLDALPTAEEVRQITLLAKLAEEAADKKNEDSALAVGIAAMAVLIALLALEAAQKAGIEEAEKGARLLLKLAMDAARKKNPEEALAVFNAALDVSIALRLLQSAKRAGSEETRKLAEEMLRQALERARK
notes: as for B1
B3: JIa (designed binder)
chain: SGSSEELARESAEAAWRLAQAGTRAALAAIRGDLKELAEALIELARAVQELARVAKEYGNDELAKTAALLAAHVALLAILVLIRAIKEGDDEVRELAKTAIKLASTAAKIVLDALPTAEEVRQITLLAKLAEEAADKKNEDSALAVGIAAAAVLAALLALEAAQKAGIEEAEKGARLLLKLAMDAARKKNPEEALAVLNAALDVSIALRLLQSAKRAGSEETRKLAEEMLRQALERARK
notes: as for B1
B4: JId (designed binder)
chain: SGSSEELARESAEAAWRLAQAATRLVLAVIRGDLKEIAEALIELARAVQELARVAKEYGNDELAKTAAFLAAHVALLAIIVLIRAIKEGDDEVRELAKTAIKLASTAAKIVLDALPTAEEVRQITLLAKLAEEAADKKNEDSALAVGIAAAAVLLALLALEAAQKAGIEEAEKGARLLLKLAMDAARKKNPEEALAVLNAALDVSIALRLLQSAKRAGSEETRKLAEEMLRQALERARK
notes: as for B1
B5: JIc (designed binder)
chain: SGSSEELARESAEAAWRLAQAATRLVLALIRGDLKEVAEALIELARAVQELARVAKEYGNDELAKTAAWLAAHVAMLAIYVLIRAIKEGDDEVRELAKTAIKLASTAAKIVLDALPTAEEVRQITLLAKLAEEAADKKNEDSALAVGIAAIAVLIALLALEAAQKAGIEEAEKGARLLLKLAMDAARKKNPEEALAVLNAALDVSIALRLLQSAKRAGSEETRKLAEEMLRQALERARK
notes: as for B1
B6: tj79C2-H125A (designed binder)
chain: SGSGSREDELWARYTLLLAELAAERADIAAERTGDPRVRELARELKRLAQEAAEEVKRDPSSSDVYLALILIVMAIYMAVLALEAAERTGDPEVRELARELVRLAVEAAEEVQRNPSSSDVNKALLLIVHAIMAAVAALEAAERTGDPEVRELARELVRLAVEAAEEVQRNPSSKEVDMALLLIQIAILEAVLSLLRAERSGDPEKREKARERVREAVERAEEVQRDPSGW
notes: as for B1
B7: D13_H11A (designed binder)
chain: SGSGSEEKEWQAMTLHLIFAIKILKEMLEEDPNDEEIKKILELLWQISKTQQDDPHNEEQKEWLMLLLLIIMALRLVQEMLKEDPNDEEIEKILELLKQILRTLREDPHNEEQKEWLILLLIIILLLDSVQEMLKEDPNDEEIEKILELLKQILRTLREDPHNEEQKQWLIQLINALILLLFIQEKLKEDPNDEEAEEELERLKEQLRRLRE
notes: as for B1
B8: D13_H11C (designed binder)
chain: SGSGSEEKEWAIMTAHLIYAIKVLKEMLEEDPNDEEIKKILELLWQISKTQQDDPHNEEQKEWLMLLLGIILALRLVQEMLKEDPNDEEIEKILELLKQILRTLREDPHNEEQKEWLALLVIIILLLDSVQEMLKEDPNDEEIEKILELLKQILRTLREDPHNEEQKQWLIQLINALILLLFIQEKLKEDPNDEEAEEELERLKEQLRRLRE
notes: as for B1
B9: D13_H11B (designed binder)
chain: SGSGSEEKEWQAMTAHLIYAIKILKEMLEEDPNDEEIKKILELLWQISKTQQDDPHNEEQKEWLILLLIIILALRLVQEMLKEDPNDEEIEKILELLKQILRTLREDPHNEEQKEWLSLLFIIIALLDSVQEMLKEDPNDEEIEKILELLKQILRTLREDPHNEEQKQWLIQLINALILLLFIQEKLKEDPNDEEAEEELERLKEQLRRLRE
notes: as for B1
B10: D_3_114_3 (designed binder)
chain: SGSGSSDELFKWLATEAKMAITAAERLAGTDPELQEMVALIKKELEQAERTFRNGDKSEAMRQLLFVLMAANAVAAVAAAANMAGTDPELQEMVDRILKQLKEAIRTFQNGDQEEAMTQLAFVLLAAAAVFVVAWALILAGTDPELQEMVKQILEELKQAIETFARGDKEKALTQLLFVLWAAHAVAWIALAALLAGTDPRLLQQVKEILEKLKEAIETFQKGDEEQAFRQLAEVLAEAILVAIRAAKTN
notes: as for B1
B11: tj79C2-H121A (designed binder)
chain: SGSGSREDELIARYQILLAELAAERADIAAERTGDPRVRELARELKRLAQEAAEEVKRDPSSSDVNMALLLILLMIELAVRALEAAERTGDPEVRELARELVRLAVEAAEEVQRNPSSSDVWQALHLIMLAIWAAVAALEAAERTGDPEVRELARELVRLAVEAAEEVQRNPSSKEVYMALLLILIAILEAVLSLLRAERSGDPEKREKARERVREAVERAEEVQRDPSGW
notes: as for B1
B12: D_3_114_2 (designed binder)
chain: SGSGSSDEEFKWLATWAKMAITAAERAAGTDPELQEMVALIKKELEQAERTFRNGDKSEAWRQLVFVAIAAAAVLAVALAANAAGTDPELQEMVDRILKQLKEAIRTFQNGDQEEAETQLFFVLLAAAAVAVVALALIWAGTDPELQEMVKQILEELKQAIETFARGDKEKALTQLLFVLWAAHAVLWIAIAANTAGTDPRLQQQVKEILEKLKEAIETFQKGDEEQAFRQLAEVLAEAVLVALRAMKTN
notes: as for B1
B13: tj79C2-H121B (designed binder)
chain: SGSGSREDELLARLLLLLAELAAERADIAAERTGDPRVRELARELKRLAQEAAEEVKRDPSSSDVLMALLLIIMAIEAAVEALEAAERTGDPEVRELARELVRLAVEAAEEVQRNPSSSDVWWALHLILFAIQLAVRALEAAERTGDPEVRELARELVRLAVEAAEEVQRNPSSKEVDMALLLILIAILEAVLSLLRAERSGDPEKREKARERVREAVERAEEVQRDPSGW
notes: as for B1
B14: tj79C2-H121C (designed binder)
chain: SGSGSREDELLARLLILLAELAAERADIAAERTGDPRVRELARELKRLAQEAAEEVKRDPSSSDVLMLLLLIVLAIQAAVEALEAAERTGDPEVRELARELVRLAVEAAEEVQRNPSSSDVFMALHLILFAIQLAVQALEAAERTGDPEVRELARELVRLAVEAAEELQRNPSSKEVQMALLLILIAILEAVLSLLRAERSGDPEKREKARERVREAVERAEEVQRDPSGW
notes: as for B1
B15: SP3x (designed binder)
chain: SGSSEELARESAEAAWRLAQASTRATLAMIRGDLKELAEALIELARAVQELARVAKEYGNDELAKTAALLAAHVAMLAIWVLIRAIKEGDDEVRELAKTAIKLASTAAKIVLDALPTAEEVRQITLLAKLAEEAADKKNEDSALAVGIAAIAVIIALWALEAAQKAGIEEAEKGARLLLKLAMDAARKKNPEEALAVLNAALDVSIALQLLQSAKRAGSEETRKLAEEMLRQALERARKKN
notes: as for B1
B16: D13_H60A (designed binder)
chain: SGSGSEEKEWMLLTAMLIMAIKTLKEMLEEDPNDEEIKKILELLWQISKTQQDDPHNEEQKEWLHLLLIIIMALRLVQEMLKEDPNDEEIEKILELLKQILRTLREDPHNEEQKEWLILLFIIIALLDSVQEMLKEDPNDEEIEKILELLKQILRTLREDPHNEEQKQWLIQLINALILLLFIQEKLKEDPNDEEAEEELERLKEQLRRLRE
notes: as for B1
B17: D13_H60B (designed binder)
chain: SGSGSEEKEWQLLTWLLIMIIKTLKEMLEEDPNDEEIKKILELLWQISKTQQDDPHNEEQKEWLHLLAAIILALRLVQEMLKEDPNDEEIEKILELLKQILRTLREDPHNEEQKAWLLLLVIIIALLDSVQEMLKEDPNDEEIEKILELLKQILRTLREDPHNEEQKQWLIQLINALILLLFIQEKLKEDPNDEEAEEELERLKEQLRRLRE
notes: as for B1
B18: tj79C2-H69B (designed binder)
chain: SGSGSREDELHARYLILSAELAAERADIAAERTGDPRVRELARELKRLAQEAAEEVKRDPSSSDVNKALLLITHAILIAVAALEAAERTGDPEVRELARELVRLAVEAAEEVQRNPSSSDVNRALFLIMMAIMMAVKALEAAERTGDPEVRELARELVRLAVEAAEEVQRNPSSKEVDMALLLILIAILEAVLSLLRAERSGDPEKREKARERVREAVERAEEVQRDPSGW
notes: as for B1
B19: tj79C2-H132A (designed binder)
chain: SGSGSREDELRARLLILLAELAAETLDIIAERTGDPRVRELARELIRLLQEAAEEVKRDPSSSDVNEALKLIVEAIFMAIFILLFAEQTGDPEVRELARELVRLAVEAAEEVQRNPSSSDVNEALKLIIQAIILAVHALLAAEKTGDPEVRELARELVRLAVEAAEEVQRNPSSKEVDMALLLILIAILEAVLSLLRAQRSGDPEKREKARERVREAVERAEEVQRDPSGW
notes: as for B1

This data set deals with the molecule itself. Put plainly: size-exclusion chromatography, self-association (homodimer). The procedure:
FIG. 7. Size exclusion chromatography (SEC) traces of purified SP apo-proteins. Proteins were injected as 0.5 mL aliquots onto a Superdex™ 200 Increase 10/300 GL column (Cytiva Life Sciences). The narrow, isolated peaks indicate that the samples contain monodisperse protein. Running buffer was 150 mM NaCl, 10 mM Tris at pH 8. Proteins were purified by Ni-NTA and one round of SEC prior to collecting the data shown.
Proteins were purified by Ni-NTA and size-exclusion chromatography (SEC) (FIG. 7). […] A slightly lower predicted radius of gyration (Rg) value compared to experimental SAXS data is likely due to a dense hydration shell around the highly charged SP proteins (Svergun et al. 1998; Kim et al. 2016). The far ultraviolet (UV) circular dichroism (CD) spectra of three SP proteins that expressed in high yield (≥140 mg/L) show the proteins are highly α-helical with and without the synthetic Chl a derivative, Zn pheophorbide a methyl ester (ZnPPaM). Thermal denaturation curves monitored by the CD signal at 222 nm indicate that all three proteins are highly thermostable in the apo- and holo-states (FIG. 2).
Background: Size exclusion chromatography separates by hydrodynamic size, large species first.
For the protein B1, the binding result is recorded as “binds”.

In the case of B2, the binding result is on record as “binds”.

Regarding B3, the binding result is recorded as “binds”.

In the case of B4, the binding result is “binds”.

With B5, the binding result was “binds”.

As for B6, the binding result is “binds”.

Turning to B7, the binding result is on record as “binds”.

For B8, the binding result is “binds”.

As for B9, the binding result was “binds”.

Take B10: the binding result is listed as “binds”.

B11: the binding result is recorded as “binds”.

Regarding B12, the binding result is reported as “binds”.

With B13, the binding result is “binds”.

B14: the binding result is “binds”.

In the case of B15, the binding result was “binds”.

Take B16: the binding result is listed as “binds”.

B17: the binding result was “binds”.

As for B18, the binding result was “binds”.

On to B19, for which the binding result is on record as “binds”.

The record behind these values is patent US20250326867A1, “De novo designed chlorophyll special pair proteins” (University of Washington, priority 2024, published 2025).
